Assay results as given in the supplement of paper PMC12764529.
± gives the half width of the 95% confidence interval.

What was measured:
[1] = folding stability dG unfold from chymotrypsin proteolysis; higher = more stable
How it was run: (§1)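 K50 was inferred by Bayesian fitting of sequencing counts obtained after protease digestion of designed mini-proteins. Unfolding free energy was derived by comparison with a sequence-predicted unfolded-state K50 and a shared folded-state K50, for each protease or both combined. The mini-proteins were under 80 residues, had no cysteine, were carried in a PA-tagged cDNA display construct, and were kept only if AlphaFold2 dimer inter-PAE exceeded 15.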

[2] = folding stability dG unfold from trypsin proteolysis; higher = more stable
How it was run: as §1

[3] = folding stability dG unfold (combined trypsin and chymotrypsin); higher = more stable
How it was run: as §1

Sequence	folding stability dG unfold [1] [kcal/mol]	folding stability dG unfold [2] [kcal/mol]	folding stability dG unfold [3] [kcal/mol]
SAGGNNIYVHIQFKPKEQKMERTPDNGKWDMEYKWEIDITIYYPKGMSPEQAERLVNELREIFPGIKSAGGS [r8_306_TrROS]	2.54 ± 0.047	1.12 ± 0.072	1.99 ± 0.12
SAGGSAGGSAGGMVVKIKVDGKTITLSAEELKKNKDLLKELEKKGYKIVSIEVFEPEEESAGGSAGGSAGGS [r10_396_TrROS_Hall]	1.71 ± 0.027	1.57 ± 0.056	1.67 ± 0.08
MEIKKIELKVEEKDGKLVLTVKIEVFDKNGKLVKKVEIKLEVPKELKEGQSLEELPLSEELRKLVKELLEKS [r1_354_TrROS_Hall]	3.79 ± 0.34	3.11 ± 0.26	3.54 ± 0.7
SAAPADNPVLVATLTVTVTRPVSFTSPDGSTGTVPETETRTLVLVADAGNDPEALERALELARRLAETVSAG [r14_830_TrMRF]	4.04 ± 0.076	2.73 ± 0.076	3.51 ± 0.099
SAGGSAGGSGSTVVEVEFPDARIVITVEPPGVLTVTVERPPFPVETVRLPDMTVEEAVAYALASAGGSAGGS [r20_8_JUSTAS]	1.14 ± 0.098	1.76 ± 0.053	1.48 ± 0.074
SAGGSAGGGFILEVDPEKGVAVAYFDPSTGEVVVAVPEGPVYRFASAEEVVAATGKPVVIVPATSAGGSAGG [r6_752_TrMRF]	0.702 ± 0.044	1.17 ± 0.024	0.966 ± 0.054
SAGGSAGGKKKIKPPEVTIKIKNKDGSVFEAKITKVEYDEETKKLYLEIEIEVNGKKYKLTIELSAGGSAGG [r6_962_TrROS_Hall]	4.49 ± 0.26	2.87 ± 0.16	4.16 ± 0.76
STIMIMFRSPEDLEKFLNEAKEMIRNGKNVPITIMAHGPNGRYWMFTIDIKMDPDGNPKIEIEWEPVPPDSA [r9_1023_TrROS]	4.24 ± 0.043	3.23 ± 0.1	3.89 ± 0.099
SAGGSGKVIEIPIELPEDKTITLRLDPETGKAVVEAEENVPLEKVIEAAKKIFEENGFELNGLDISSAGGSA [r2_497_TrMRF]	0.725 ± 0.092	0.788 ± 0.032	0.782 ± 0.12
SAGGSAGGSAPLSLVIDFPSGPATITFLEDGTARITYTDDDKTETIPVADLLKIPADVDPRSAGGSAGGSAG [r3_256_TrMRF]	0.769 ± 0.12	0.0215 ± 0.099	0.507 ± 0.091
SAGGMRPMVVTVRYPDGSVQTLVADYDPDTDVIRFPFPSDGTERDIPAGEWREDPDYQVLSETPLSLESAGG [r13_994_JUSTAS]	0.0211 ± 0.11	1.58 ± 0.045	0.967 ± 0.052
SAGGSAGGSAGMIKIEETVVLPDGTVVRKEKEIEPPNGKTTTLKTETVPVLSPGSESLLLSAGGSAGGSAGG [r11_919_JUSTAS]	0.313 ± 0.074	0.429 ± 0.041	0.461 ± 0.067
SAGGSAGGKPKKVKIKIEITYNKETGVVKIKIEVEVDGKTYTIEIEVKLKPGQTIEELLKKLLESAGGSAGG [r6_20_TrROS_Hall]	4.75 ± 0.34	2.84 ± 0.24	4.46 ± 0.54
SAGPIIIRVKYPDGRQIDINPENPWQIQIWDPGGKKETYPFDSNEDAKDKVVDWLGEEHGWPIKDVEIVSAG [r5_119_TrROS]	0.35 ± 0.059	0.373 ± 0.043	0.403 ± 0.11
SAGGSAGGSAGGYIEIVFAHPDPEPGYKYAMVMEIQMDPPGNMEMNIRVIKDPEDAKEAFSAGGSAGGSAGG [r11_792_TrROS]	1.43 ± 0.067	1.35 ± 0.12	1.41 ± 0.19
SAGMVEVSVTVSPRADGTITVTITLTKTFPVKDSKGNLYLETTTKTVTVPVTSLEEAPVIVKEVIDKLSAGG [r19_218_JUSTAS]	3.23 ± 0.14	3.82 ± 0.19	3.54 ± 0.15
SAGMTFTTVTVERPLGSPEGKPVSLEEVEEYAKKVAEELEPNGFPVENITIELLPDGTAVITMTIKKPLSAG [r14_470_JUSTAS]	1.86 ± 0.044	2.03 ± 0.042	1.94 ± 0.056
SAGGSAGGSYYPIEDPNGMKIWVEPDPDNGMYRIRIQFPEGKKVERTFPPGMPLDDIPIKIKDSAGGSAGGS [r12_261_TrROS]	-0.0445 ± 0.38	0.688 ± 0.094	0.434 ± 0.24
SAGGSAGGSAGGMKLDVTIVGDGKVTTLPADSLEDVEETLKKLGLTLKSVDPATGTVTVASAGGSAGGSAGG [r7_726_JUSTAS]	-0.0786 ± 0.54	0.718 ± 0.051	0.305 ± 0.19
SAGGWWIITIEFPNPEQIKKILEEAGWKVDIERRPNGSVTIFFPPDDVDKIKKAFPGFEINIHPIPPNSAGG [r13_261_TrROS]	4.45 ± 0.093	3.58 ± 0.11	4.25 ± 0.089
SAGGSAGGMILIKNEDGSLYLIEVETVTVTVKVKLPEELKELLKGIKPGDTITVTVTKVRIVKLSAGGSAGG [r6_907_TrROS_Hall]	4.58 ± 0.11	3.79 ± 0.15	4.32 ± 0.17

Sequence	folding stability dG unfold [1] [kcal/mol]	folding stability dG unfold [2] [kcal/mol]	folding stability dG unfold [3] [kcal/mol]
SAGGSAGGSAKENEKISIGPEITETGLDILEIKVDTNTKVVTIRFANKIYRIDKNGNISIVSSAGGSAGGSA [r18_445_TrMRF]	2.51 ± 0.13	1.73 ± 0.065	2.18 ± 0.17
SAGGSAMSVTLTFEEPVGPGVPVKVTVTVERFPDSVKVTVTTTFPDGTVTTTPVSLKLEPAAVDLLSAGGSA [r15_263_JUSTAS]	2.694 ± 0.022	2.44 ± 0.11	2.54 ± 0.082
SAGGTIKITIKAENLTEEEKEELAKKIADELKKKGYKVKKVEVTVEKEKEKTVTITLENGKKIEVKLSAGGS [r8_485_TrROS_Hall]	2.56 ± 0.038	1.49 ± 0.072	2.31 ± 0.18
SETITLEIELPDGSKLTIEIPVEKIPGVDEYVVTVKITEYLPNGKPRSREFTFLAKSPEEAVEIALLAAGSA [r9_337_TrMRF]	5.57 ± 0.16	4.7 ± 0.24	5.57 ± 0.21
SGSLSIEFSSTEPSSPGSITLSKLFPEPEADRATHTIKLPNSTIELEFDSAEDLIKNVEKLLKELGNPGKSA [r9_258_JUSTAS]	-0.0786 ± 0.18	0.297 ± 0.058	0.115 ± 0.12
SAGGKKLLIKVRIEVFNENGELVREEEIEIEVEGMSEEELEELARELLAKLPPENVKIEVEIVELEESAGGS [r16_774_TrROS_Hall]	4.31 ± 0.37	4.34 ± 0.94	4.16 ± 0.35
SAGGMTIELTIVAETEEEAEKAAEELARKLAELYPDLKVKVTVEKVEVKDEETGKTYLVYKVRIEIEPSAGG [r13_545_TrROS_Hall]	4.96 ± 0.11	4.47 ± 0.19	4.95 ± 0.11
SAGGSAGGSAGGSEEEIKKLAAEGGSFTATIPVVTPDGKPVEKTVTVEVKTDPKTGKLVSAGGSAGGSAGGS [r10_346_JUSTAS]	0.906 ± 0.025	0.482 ± 0.043	0.791 ± 0.083
SAGGSAPKIRVEIEIDPDNGTIKLEVQHDGKPVFEMTMRIDPNGKIKEMKFTFYVDPDNGKLEIMMSAGGSA [r15_770_TrROS]	4.59 ± 0.26	3.68 ± 0.25	4.43 ± 0.17
SAMTLTLTVPPGAKVRVRITNENGETTEIEVEPGETVTITLPAGSTVRVEVEVVDPDGRKRTETFTLKPSAG [r14_568_TrROS_Hall]	3.22 ± 0.07	3.46 ± 0.11	3.27 ± 0.15
SAMEVKIEKVEVKDGTVRITVTVKVSEEQLEKVKELAEKLKEKGYEVKVVKVEKLEDGTIKVEIEVKPKSAG [r14_354_TrROS_Hall]	2.36 ± 0.17	2.7 ± 0.32	2.66 ± 0.92
SAGGATLTLKPGDEITLTLTVTVTVTNEDGSTSTFTTTVTLTLRIEPAPPPPPVTVERDADGNLRVTLSAGG [r13_401_TrROS_Hall]	2.46 ± 0.091	2.35 ± 0.089	2.48 ± 0.18
SAGGPSHPLGPVALTLDPAASTLTVTLGDEVLTLPVPPGVTATATSYPDSVTVTLTFPDGTVVTVTLPLSAG [r5_21_JUSTAS]	3.18 ± 0.034	2.18 ± 0.063	2.89 ± 0.056
SAGGSAGGSAGSEIAEAIKKALEEAGVKEVKIEKVGPEPNVFRITFENGETIEITLPEDLSAGGSAGGSAGG [r11_765_TrROS_Hall]	2.19 ± 0.037	2.28 ± 0.15	2.21 ± 0.1
SAGMLRELLDNPDVKRLEIVIFIPEEDLSEEDRERARERARELAERLRELLRERGYDVEIEVRIVRLPPSAG [r5_408_TrROS_Hall]	3.22 ± 0.062	3.5 ± 0.11	3.39 ± 0.088
SAGGSAGGSAGGGELKELLKKNPGPLLLERPENTVSLILYDPKTGTYTVLTFSPTEPIPLSAGGSAGGSAGG [r7_84_JUSTAS]	1.69 ± 0.11	1.27 ± 0.056	1.52 ± 0.14
SAGGSAGGSAGGMTPEEIEAALQKAREENSEDEEFTVTVTDPETGEVLTIRIDPNSVTIESAGGSAGGSAGG [r7_45_JUSTAS]	-0.0816 ± 0.11	1.15 ± 0.034	0.719 ± 0.08
SAGGSAGGSAGGKKIIKVPLKNAEKIKKELKKKYKIKKVKIEKNKDGSKYIYIEVEKPKSAGGSAGGSAGGS [r10_1219_TrROS_Hall]	1.69 ± 0.16	0.939 ± 0.071	1.5 ± 0.23
SAGGSAGGSAGLPPGDKVTISIPIVIPDGYMINSHITIDPDNGETEIEIQIYPLKDPDALSAGGSAGGSAGG [r11_695_TrROS]	2.12 ± 0.11	2.1 ± 0.21	2.11 ± 0.14
SAGGMYLYKINIKNENEEFFLPILAPEEDEEKVEELAKEISIKLGVKPENIKIEKIEKILGPNGIPVSAGGS [r16_650_TrMRF]	2.08 ± 0.037	1.74 ± 0.058	1.99 ± 0.1
SIEVEKTPDGKFEIENDNGWKVEIEVFPGMIEIKIKPVKVYVPDGKWFETPEEAEKMQEKNGVPITEDDLSA [r9_660_TrROS]	1.08 ± 0.071	0.615 ± 0.12	0.743 ± 0.19
